Measurements published in patent US20230116587A1.

Molecular target: RBD of the recombinantly expressed S protein (novel coronavirus SARS-CoV-2) (UniProt P0DTC2)
Assay: ELISA, RBD coated at 0.01 µg/ml, antibody 0.1 µg/ml, HRP anti-human IgG Fc

Substance: irrelevant control antibody
- OD450 reading: 0.006 OD450
